Here are results for one protein from PMC9223585, “Structural and Functional Insights into CP2c Transcription Factor Complexes” (International Journal of Molecular Sciences, 2022).

The data set deals with the molecule itself. Nature of the data set: cross-linking + co-IP; DSP XL-WB: nuclear extracts of MDA-MB-231 cells, Benzonase, 2 mM DSP 30 min at room temperature, IP with CP2c, CP2b or PIAS1 antibodies, sequential Western blot with and without DTT.

B1: CP2c (TFCP2), endogenous human (natural protein, human (endogenous in MDA-MB-231), UniProt Q12800-1 1-502, looked up)
chain: MAWALKLPLADEVIESGLVQDFDASLSGIGQELGAGAYSMSDVLALPIFKQEESSLPPDNENKILPFQYVLCAATSPAVKLHDETLTYLNQGQSYEIRMLDNRKLGELPEINGKLVKSIFRVVFHDRRLQYTEHQQLEGWRWNRPGDRILDIDIPMSVGIIDPRANPTQLNTVEFLWDPAKRTSVFIQVHCISTEFTMRKHGGEKGVPFRVQIDTFKENENGEYTEHLHSASCQIKVFKPKGADRKQKTDREKMEKRTPHEKEKYQPSYETTILTECSPWPEITYVNNSPSPGFNSSHSSFSLGEGNGSPNHQPEPPPPVTDNLLPTTTPQEAQQWLHRNRFSTFTRLFTNFSGADLLKLTRDDVIQICGPADGIRLFNALKGRMVRPRLTIYVCQESLQLREQQQQQQQQQQKHEDGDSNGTFFVYHAIYLEELTAVELTEKIAQLFSISPCQISQIYKQGPTGIHVLISDEMIQNFQEEACFILDTMKAETNDSYHIILK
notes: transcription factor CP2c (TFCP2, LBP-1c), endogenous in the human breast cancer line MDA-MB-231; both are human cells; also called α-CP2; LSF; source: endogenous, MDA-MB-231 nuclear and cytosolic lysate
The stoichiometry N is the number of molecules, sites or subunits per partner or assembly. B1: the “stoichiometry N” value stood at 4.
